Consider 2 substances from publication PMC7807036.

In series [1] the target is T1, thrombin (human) (UniProt P00734+P00734). Briefly: fibrinogen clotting (light scattering). The conditions noted are these: Clotting: 20 mM Tris, 150 mM NaCl, 5 mM KCl, 1 mM MgCl2, 1 mM CaCl2, pH 7.4, 12 nM thrombin, 25 C, 5 min; AFM binding conditions not given in the material.
For series [2], the target named is T1, thrombin (human). Briefly: AFM. The conditions noted are these: Clotting: 20 mM Tris, 150 mM NaCl, 5 mM KCl, 1 mM MgCl2, 1 mM CaCl2, pH 7.4, 12 nM thrombin, 25 C, 5 min; AFM binding conditions not given in the material.

With “Aptarray (rectangular origami, 36 TBA15 + 36 HD22, 5.4 nm)”, in the series with thrombin (human) [1], the binding signal (% inhibition of thrombin) came to 98.3. Substance “origami nanostructure IV (9 TBA15 + 9 HD22, ~5.4 nm)” registered a binding signal (% of origami with bound thrombin) with thrombin (human) [2] of 76.
